The results in this text go back to US20160030526A1 (GENERAL HOSPITAL, published 2016).

The target of the assay is monovalent murine IL-2 fusion toxin (DT390-mIL-2-6xHis). The experiment in a line: flow cytometry on CTLL-2 cells.

B1: murine IL-2 receptor on murine CD25+ CTLL-2 cells (receptor)
chain 1: ELCLYDPPEVPNATFKALSYKNGTILNCECKRGFRRLKELVYMRCLGNSWSSNCQCTSNSHDKSRKQVTAQLEHQKEQQTTTDMQKPTQSMHQENLTGHCREPPPWKHEDSKRIYHFVEGQSVHYECIPGYKALQRGPAISICKMKCGKTGWTQPQLTCVDEREHHRFLASEESQGSRNSSPESETSCPITTTDFPQPTETTAMTETFVLTMEYKVAVASCLFLLISILLLSGLTWQHRWRKSRRTI
chain 2: AVKNCSHLECFYNSRANVSCMWSHEEALNVTTCHVHAKSNLRHWNKTCELTLVRQASWACNLILGSFPESQSLTSVDLLDINVVCWEEKGWRRVKTCDFHPFDNLRLVAPHSLQVLHIDTQRCNISWKVSQVSHYIEPYLEFEARRRLLGHSWEDASVLSLKQRQQWLFLEMLIPSTSYEVQVRVKAQRNNTGTWSPWSQPLTFRTRPADPMKEILPMSWLRYLLLVLGCFSGFFSCVYILVKCRYLGPWLKTVLKCHIPDPSEFFSQLSSQHGGDLQKWLSSPVPLSFFSPSGPAPEISPLEVLDGDSKAVQLLLLQKDSAPLPSPSGHSQASCFTNQGYFFFHLPNALEIESCQVYFTYDPCVEEEVEEDGSRLPEGSPHPPLLPLAGEQDDYCAFPPRDDLLLFSPSLSTPNTAYGGSRAPEERSPLSLHEGLPSLASRDLMGLQRPLERMPEGDGEGLSANSSGEQASVPEGNLHGQDQDRGQGPILTLNTDAYLSLQELQAQDSVHLI
chain 3: WSSKVLMSSANEDIKADLILTSTAPEHLSAPTLPLPEVQCFVFNIEYMNCTWNSSSEPQATNLTLHYRYKVSDNNTFQECSHYLFSKEITSGCQIQKEDIQLYQTFVVQLQDPQKPQRRAVQKLNLQNLVIPRAPENLTLSNLSESQLELRWKSRHIKERCLQYLVQYRSNRDRSWTELIVNHEPRFSLPSVDELKRYTFRVRSRYNPICGSSQQWSKWSQPVHWGSHTVEENPSLFALEAVLIPVGTMGLIITLIFVYCWLERMPPIPPIKNLEDLVTEYQGNFSAWSGVSKGLTESLQPDYSERFCHVSEIPPKGGALGEGPGGSPCSLHSPYWPPPCYSLKPEA
notes: whole, on cells; also called murine CD25+ IL-2 receptor
Take B1: the binding result is given as “binds”.
